The values that follow come from patent US20250270343A1 (Alector, published 2025).

Test [1] concerns the target T1, soluble human GPNMB (recombinant extracellular domain) (human, UniProt Q14956 23-498).
T1 construct: also called huGPNMB; recombinant human GPNMB extracellular domain; not shown: C-terminal polyhistidine or Avi-His tag
T1 sequence: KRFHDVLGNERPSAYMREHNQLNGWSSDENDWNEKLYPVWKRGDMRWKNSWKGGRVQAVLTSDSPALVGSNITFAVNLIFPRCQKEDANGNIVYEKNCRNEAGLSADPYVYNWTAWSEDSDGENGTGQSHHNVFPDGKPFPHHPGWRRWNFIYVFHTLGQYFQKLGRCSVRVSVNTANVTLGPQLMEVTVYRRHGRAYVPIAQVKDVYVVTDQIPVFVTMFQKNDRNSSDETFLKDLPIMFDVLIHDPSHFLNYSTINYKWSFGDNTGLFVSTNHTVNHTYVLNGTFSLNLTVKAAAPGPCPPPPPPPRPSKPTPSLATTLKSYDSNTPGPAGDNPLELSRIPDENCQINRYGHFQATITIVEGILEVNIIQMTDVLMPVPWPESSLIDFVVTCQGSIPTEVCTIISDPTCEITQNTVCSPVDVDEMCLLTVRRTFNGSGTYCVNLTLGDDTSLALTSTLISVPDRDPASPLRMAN
As to the kind of experiment: SPR Biacore, IgG captured. As to the method:
(§1) Binding kinetics of the humanized and affinity matured anti-GPNMB antibodies described above were evaluated using the Biacore T200 (Cytiva). Briefly, IgGs were diluted to 10 μg/mL and captured using a Protein A/G (ThermioFisher, #21186) surface on a CM5 chip that was prepared by amine coupling according to the instrument manufacturer's recommendations. The captured antibodies were tested for their ability to bind human, cynomolgus monkey, and mouse GPNMB recombinant proteins as follows.
(§2) Human, cynomolgus, and mouse GPNMB analytes were diluted in running buffer (HBS-EP+, Teknova, #8022, with 0.5 mg/ml BSA, MP Biomedicals LLC, #820451), to a concentration of 300 nM, then diluted 3-fold serially to 100 nM, 33 nM, and 11 nM. Each sample was injected for 2 minutes to allow association, followed by dissociation in buffer alone for 10 minutes. Each sample injection was followed by the regeneration of the chip with three 30-second injections of 10 mM glycine, pH 1.7. Fresh antibody was captured at the beginning of each cycle.
(§3) Data were analyzed using Biacore evaluation software to generate kinetic constants. The equilibrium dissociation constants (KD) were calculated from the fitted association and dissociation rate constants (k-on and k-off) for each of the anti-GPNMB antibodies.

The target of test [2] is T2, soluble cynomolgus GPNMB (recombinant extracellular domain) (cynomolgus, UniProt Q14956 23-499 (human entry), limits assumed).
T2 chain: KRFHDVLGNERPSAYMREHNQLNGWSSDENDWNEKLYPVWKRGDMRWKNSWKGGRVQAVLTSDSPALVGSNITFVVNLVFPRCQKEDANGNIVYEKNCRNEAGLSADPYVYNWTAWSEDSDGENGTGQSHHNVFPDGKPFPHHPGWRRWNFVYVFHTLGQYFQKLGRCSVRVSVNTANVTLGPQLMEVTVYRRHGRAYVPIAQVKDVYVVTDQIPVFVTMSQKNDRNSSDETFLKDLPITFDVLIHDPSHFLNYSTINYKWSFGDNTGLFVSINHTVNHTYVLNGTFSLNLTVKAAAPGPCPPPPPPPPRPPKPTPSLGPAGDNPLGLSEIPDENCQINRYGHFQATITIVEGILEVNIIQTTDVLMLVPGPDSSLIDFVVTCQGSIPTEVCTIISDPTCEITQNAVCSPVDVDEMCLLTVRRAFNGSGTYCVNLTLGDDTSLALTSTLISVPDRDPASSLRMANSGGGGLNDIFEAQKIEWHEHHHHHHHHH
Description: SPR Biacore, IgG captured. As for the experimental part: as §1, §2, §3
A general note: In SPR one partner is held on a chip, and binding of the other changes the refractive index at the surface.

For test [3], the target named is T3, full-length untagged human GPNMB expressed on cells (human, UniProt Q14956 23-572).
T3 sequence: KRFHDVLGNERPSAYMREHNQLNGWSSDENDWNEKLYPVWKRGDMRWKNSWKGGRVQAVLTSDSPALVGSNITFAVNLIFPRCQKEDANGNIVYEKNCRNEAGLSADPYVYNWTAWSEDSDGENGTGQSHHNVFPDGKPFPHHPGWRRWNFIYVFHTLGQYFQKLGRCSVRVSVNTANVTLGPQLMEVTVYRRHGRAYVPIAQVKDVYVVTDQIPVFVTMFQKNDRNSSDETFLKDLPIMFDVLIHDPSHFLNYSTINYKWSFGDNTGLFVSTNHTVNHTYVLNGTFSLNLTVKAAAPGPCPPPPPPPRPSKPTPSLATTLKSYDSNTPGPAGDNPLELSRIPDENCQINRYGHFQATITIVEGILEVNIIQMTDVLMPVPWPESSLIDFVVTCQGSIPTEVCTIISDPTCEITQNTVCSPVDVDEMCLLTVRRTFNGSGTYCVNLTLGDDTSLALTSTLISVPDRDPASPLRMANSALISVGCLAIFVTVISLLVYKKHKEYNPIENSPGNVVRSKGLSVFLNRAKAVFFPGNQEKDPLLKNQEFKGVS
Description: cell-based or functional assay.

Test [4] concerns the target T4, soluble mouse GPNMB (recombinant extracellular domain) (mouse, UniProt Q99P91 23-502).
T4 construct: also called moGPNMB; not shown: C-terminal polyhistidine or Avi-His tag
T4 sequence: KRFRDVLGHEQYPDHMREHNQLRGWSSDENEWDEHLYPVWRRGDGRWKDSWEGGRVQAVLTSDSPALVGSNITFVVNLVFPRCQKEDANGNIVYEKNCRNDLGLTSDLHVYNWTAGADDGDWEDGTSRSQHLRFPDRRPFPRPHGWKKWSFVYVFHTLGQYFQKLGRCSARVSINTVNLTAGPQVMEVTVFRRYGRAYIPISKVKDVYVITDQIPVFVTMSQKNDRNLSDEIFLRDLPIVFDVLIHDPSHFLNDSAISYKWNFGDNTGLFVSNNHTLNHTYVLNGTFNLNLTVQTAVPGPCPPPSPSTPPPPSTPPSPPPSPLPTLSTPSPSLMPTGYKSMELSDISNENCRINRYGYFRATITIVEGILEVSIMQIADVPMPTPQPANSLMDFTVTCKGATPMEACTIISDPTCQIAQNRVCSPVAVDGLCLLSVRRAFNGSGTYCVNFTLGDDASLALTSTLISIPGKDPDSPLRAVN
Description: SPR Biacore T200, IgG captured on Protein A/G; nb = no binding observed.

Test [5] deals with T3, full-length untagged human GPNMB …. As to the kind of experiment: cell-based or functional assay. The source holds these as a separate data set.
The target is the same in test [6]. As to the kind of experiment: FACS titration, FS293-huGPNMB+ cells. As to the method:
Affinity matured anti-GPNMB antibodies of the present disclosure were examined to determine their ability to bind human and mouse GPNMB expressed on FS293-huGPNMB+ or B16F10 cells, respectively. Cell-based affinity measurements were performed to ascertain the apparent affinities of anti-GPNMB antibodies to cell-surface expressed GPNMB. Serial dilutions of anti-GPNMB antibodies of the present disclosure were added to 100,000 FS293-huGPNMB+ or B16F10 cells and allowed to achieve binding equilibrium at 4° C. After addition of fluorescently labeled secondary antibody and brief washing steps, MFI values as a function of titrated antibody concentration were recorded via FACS analysis. Equilibrium binding curves were fit using nonlinear regression analysis with Graphpad Prism 6 software.

Test [7] shares this target. Description: cell-based or functional assay. This is another data set of the same source.
Test [8] deals with T4, soluble mouse GPNMB (recombinant …). Description: SPR Biacore, IgG captured. As for the experimental part:
as §1, §2, §3

B1: anti-GPNMB antibody GPN-92 (antibody, V domains shown)
VH: QVQLVQSGAEVKKPGASVKVSCKASGYTFTSYWMHWVRQAPGQGLEWMGEINPSDGRTNYAQKFQGRVTMTVDKSTSTVYMELSSLRSEDTAVYYCARSGGNYAWFAYWGQGTLVTVSS
VL: DIVMTQSPDSLAVSLGERATINCKASQDVSPSLAWYQQKPGQPPKLLIYSASYRYTGVPDRFSGSGSGTDFTLTISSLQAEDVAVYYCQQHYSIPLTFGGGTKVEIK
notes: humanized GPN-08
For B1, in test [1], the Kd was 66.5 nM, the koff was 0.005 s⁻¹ and the kon was found to be 75000 M⁻¹ s⁻¹. In test [2], the equilibrium dissociation constant (Kd) came out at 67.8 nM, the koff came to 0.0057 s⁻¹ and the kon is 83000 M⁻¹ s⁻¹. In test [3], the “EC50 GCase” value came to 0.27 nM and the “Fold Increase GCase (max response at 1 µg/ml)” value (shortened to “Fold Increase GCase”) is 1.25 fold. In addition, the binding result in test [4] is on record as “no binding (tested: 300 nM highest analyte concentration)”. Further, in test [5], the “EC50 PDL1” value is 1.36 nM, the “Fold Increase CD40 (max response at 1 µg/ml)” value (from here on “Fold Increase CD40”) was found to be 1.59 fold and the “Fold Increase PDL1 (max response at 1 µg/ml)” value (“Fold Increase PDL1” below) turned out to be 1.99 fold.

B2: anti-GPNMB antibody GPN-93 (antibody, V domains shown)
VH: QVQLVQSGAEVKKPGASVKVSCKASGYTFTSYWMHWVRQAPGQGLEWMGEINPYDQRTNYAQKFQGRVTMTVDKSTSTVYMELSSLRSEDTAVYYCARSTGNYAWFAYWGQGTLVTVSS
VL: DIVMTQSPDSLAVSLGERATINCKTSQDVSPSLAWYQQKPGQPPKLLIYSASKRYTGVPDRFSGSGSGTDFTLTISSLQAEDVAVYYCQQHYSIPLQFGGGTKVEIK
As to B2, in test [1], the Kd came out at 8.7 nM, the koff was determined as 0.00059 s⁻¹ and the kon turned out to be 68000 M⁻¹ s⁻¹. For the same molecule, in test [2], the Kd worked out at 10.6 nM, the koff was found to be 0.00071 s⁻¹ and the kon amounted to 67000 M⁻¹ s⁻¹. In test [3], the “EC50 GCase” value was determined as 0.5 nM and the “Fold Increase GCase” value is 1.45 fold. In test [6], this molecule had an EC50 of 0.568 nM. Besides, the binding result in test [4] is on record as “no binding (tested: 300 nM highest analyte concentration)”. Further, in test [5], the “Fold Increase CD40” value amounted to 1.87 fold and the “Fold Increase PDL1” value amounted to 2.18 fold. In test [7], the “Inflammasome: Fold Decrease IL-1β (max response at 0.3 µg/ml)” value (shortened to “Inflammasome: Fold Decrease IL-1β”) came to 0.594 fold.

B3: anti-GPNMB antibody GPN-94 (antibody, V domains shown)
VH: QVQLVQSGAEVKKPGASVKVSCKASGYTFTSYWMHWVRQAPGQGLEWMGEINPYDQRTNYAQKFQGRVTMTVDKSTSTVYMELSSLRSEDTAVYYCARSTGNYAWFAYWGQGTLVTVSS
VL: DIVMTQSPDSLAVSLGERATINCKTSQDVSPSLAWYQQKPGQPPKLLIYSASKRYTGVPDRFSGSGSGTDFTLTISSLQAEDVAVYYCQQHYSIPLTFGGGTKVEIK
For the molecule B3, in test [1], the Kd was 5.4 nM, the koff turned out to be 0.00042 s⁻¹ and the kon worked out at 78000 M⁻¹ s⁻¹. Moreover, in test [2], the Kd turned out to be 6.5 nM, the koff came to 0.00051 s⁻¹ and the kon is 78000 M⁻¹ s⁻¹. For the same molecule, in test [3], the “EC50 GCase” value was 0.54 nM and the “Fold Increase GCase” value was 1.4 fold. The same molecule had an EC50 in test [6] of 0.186 nM. Also, the binding result in test [4] is “no binding (tested: 300 nM highest analyte concentration)”. Moreover, in test [5], the “EC50 PDL1” value worked out at 1.14 nM, the “Fold Increase CD40” value came out at 1.72 fold and the “Fold Increase PDL1” value is 1.88 fold. Besides, in test [7], the “Inflammasome: Fold Decrease IL-1β” value worked out at 0.532 fold.

B4: anti-GPNMB antibody GPN-82 (antibody, V domains shown)
VH: QVQLQESGPGLVKPSETLSLTCTVSGISITTGNYRWSWIRQPPGKGLEWIGYIYYSGTIIYNPSLKSRVTITRDTSKNQFSLELSSVTAADTAVYYCARDLTHWYFDVWGQGTLVTVSS
VL: DIVMTQSPDSLAVSLGERATINCKSSRSVDYYGIGFLNWYQQKPGQPPKLLIYATSTQGSGVPDRFSGSGSGTDFTLTISSLQAEDVAVYYCQQQKEVPPTFGGGTKVEIK
For the molecule B4, in test [8], the Kd worked out at 2.6 nM, the koff was determined as 0.00039 s⁻¹ and the kon is 150000 M⁻¹ s⁻¹. In addition, in test [1], the Kd was 11.9 nM, the koff worked out at 0.0024 s⁻¹ and the kon is 200000 M⁻¹ s⁻¹. Besides, in test [2], the Kd worked out at 13.5 nM, the koff came out at 0.0022 s⁻¹ and the kon was 160000 M⁻¹ s⁻¹. Besides, in test [3], the “EC50 GCase” value is 0.365 nM, the “EC50 Lyso Tracker” value was 0.64 nM, the “Fold Decrease Lyso Tracker (max response at 1 µg/ml)” value turned out to be 0.569 fold and the “Fold Increase GCase” value is 1.54 fold. Further, in test [5], the “EC50 PDL1” value was 1.94 nM, the “Fold Increase CD40” value is 2.29 fold and the “Fold Increase PDL1” value was 4.6 fold. Further, in test [7], the “Inflammasome: Fold Decrease IL-1β” value was found to be 0.378 fold.

For orientation: Kd means the equilibrium constant for the complex coming apart. For orientation: koff means a measure of how fast the partners let go of each other. For orientation: kon means a measure of how fast the partners come together. The EC50 is the concentration that produces a half-maximal response. Higher therefore signals lower potency in that assay.
